Source: PMC7532149, “Antibiotic export by MexB multidrug efflux transporter is allosterically controlled by a MexA-OprM chaperone-like complex” (Nature Communications, 2020)

B1: OprM (natural protein)
chain: CSLIPDYQRPEAPVAAAYPQGQAYGQNTGAAAVPAADIGWREFFRDPQLQQLIGVALENNRDLRVAALNVEAFRAQYRIQRADLFPRIGVDGSGTRQRLPGDLSTTGSPAISSQYGVTLGTTAWELDLFGRLRSLRDQALEQYLATEQAQRSAQTTLVASVATAYLTLKADQAQLQLTKDTLGTYQKSFDLTQRSYDVGVASALDLRQAQTAVEGARATLAQYTRLVAQDQNALVLLLGSGIPANLPQGLGLDQTLLTEVPAGLPSDLLQRRPDILEAEHQLMAANASIGAARAAFFPSISLTANAGTMSRQLSGLFDAGSGSWLFQPSINLPIFTAGSLRASLDYAKIQKDINVAQYEKAIQTAFQEVADGLAARGTFTEQLQAQRDLVKASDEYYQLADKRYRTGVDNYLTLLDAQRSLFTAQQQLITDRLNQLTSEVNLYKALGGGWNQQTVTQQQTAKKEDPQA
notes: OprM, outer-membrane factor of the MexAB-OprM efflux system of Pseudomonas aeruginosa; Homotrimer; also called OprM-ND; outer-membrane factor (OMF); source: reconstituted in POPC nanodiscs (MSP1D1) or DOPC proteoliposomes
B2: MexA, P52477 24-383 (natural protein)
chain: CGKSEAPPPAQTPEVGIVTLEAQTVTLNTELPGRTNAFRIAEVRPQVNGIILKRLFKEGSDVKAGQQLYQIDPATYEADYQSAQANLASTQEQAQRYKLLVADQAVSKQQYADANAAYLQSKAAVEQARINLRYTKVLSPISGRIGRSAVTEGALVTNGQANAMATVQQLDPIYVDVTQPSTALLRLRRELASGQLERAGDNAAKVSLKLEDGSQYPLEGRLEFSEVSVDEGTGSVTIRAVFPNPNNELLPGMFVHAQLQEGVKQKAILAPQQGVTRDLKGQATALVVNAQNKVELRVIKADRVIGDKWLVTEGLNAGDKIITEGLQFVQPGVEVKTVPAKNVASAQKADAAPAKTDSKG
modifications: here or on the partner: lipid moiety of the N-terminal cysteine; lipid moiety of the N-terminal cysteine
B3: MexA (natural protein)
chain: B2 chain
modifications: lipid moiety of the N-terminal cysteine
notes: MexA, periplasmic membrane fusion lipoprotein of Pseudomonas aeruginosa; N-terminal cysteine carries a lipid moiety; Six copies (a hexamer of two non-equivalent protomers, MexA-I and MexA-II) stand in the tripartite complex; also called MexA-I; MexA-II; source: reconstituted with MexB in POPC nanodiscs or DOPC/cholesterol proteoliposomes
B4: MexB (natural protein)
chain: MSKFFIDRPIFAWVIALVIMLAGGLSILSLPVNQYPAIAPPAIAVQVSYPGASAETVQDTVVQVIEQQMNGIDNLRYISSESNSDGSMTITVTFEQGTDPDIAQVQVQNKLQLATPLLPQEVQRQGIRVTKAVKNFLMVVGVVSTDGSMTKEDLSNYIVSNIQDPLSRTKGVGDFQVFGSQYSMRIWLDPAKLNSYQLTPGDVSSAIQAQNVQISSGQLGGLPAVKGQQLNATIIGKTRLQTAEQFENILLKVNPDGSQVRLKDVADVGLGGQDYSINAQFNGSPASGIAIKLATGANALDTAKAIRQTIANLEPFMPQGMKVVYPYDTTPVVSASIHEVVKTLGEAILLVFLVMYLFLQNFRATLIPTIAVPVVLLGTFGVLAAFGFSINTLTMFGMVLAIGLLVDDAIVVVENVERVMAEEGLSPREAARKSMGQIQGALVGIAMVLSAVFLPMAFFGGSTGVIYRQFSITIVSAMALSVIVALILTPALCATMLKPIEKGDHGEHKGGFFGWFNRMFLSTTHGYERGVASILKHRAPYLLIYVVIVAGMIWMFTRIPTAFLPDEDQGVLFAQVQTPPGSSAERTQVVVDSMREYLLEKESSSVSSVFTVTGFNFAGRGQSSGMAFIMLKPWEERPGGENSVFELAKRAQMHFFSFKDAMVFAFAPPSVLELGNATGFDLFLQDQAGVGHEVLLQARNKFLMLAAQNPALQRVRPNGMSDEPQYKLEIDDEKASALGVSLADINSTVSIAWGSSYVNDFIDRGRVKRVYLQGRPDARMNPDDLSKWYVRNDKGEMVPFNAFATGKWEYGSPKLERYNGVPAMEILGEPAPGLSSGDAMAAVEEIVKQLPKGVGYSWTGLSYEERLSGSQAPALYALSLLVVFLCLAALYESWSIPFSVMLVVPLGVIGALLATSMRGLSNDVFFQVGLLTTIGLSAKNAILIVEFAKELHEQGKGIVEAAIEACRMRLRPIVMTSLAFILGVVPLAISTGAGSGSQHAIGTGVIGGMVTATVLAIFWVPLFYVAVSTLFKDEASKQQASVEKGQ
notes: MexB, inner-membrane RND multidrug efflux transporter of Pseudomonas aeruginosa; wild type; Homotrimer, both alone in the nanodisc (MexB-solo, LTC form) and in the tripartite complex (MexB-trio, LTO form); also called MexB-solo; MexB-trio; source: reconstituted in POPC nanodiscs (MSP1E3D1) or DOPC/cholesterol proteoliposomes

Experiments:
Experiment in all cases: cryo-EM structure; tripartite MexAB-OprM complex self-assembled from MexA and MexB in POPC nanodiscs and OprM in POPC nanodiscs; 10 mM Tris/Cl pH 7.4, 100 mM NaCl; enriched by SEC (Superose 6, detergent-free buffer); single-particle analysis, no symmetry imposed
[1] = molecular target: the molecule itself
[2] = molecular target: T1, MexA (Pseudomonas aeruginosa), P52477; conditions: remark: other sources report otherwise
T1 chain: B2 chain

[3] = molecular target: B1; conditions: both partners purified

| Binder | stoichiometry N [1] | further results |
| --- | --- | --- |
| B1 | 3 | – |
| B2 | – | stoichiometry N [2]: 6 |
| B3 | – | stoichiometry N [3]: 2 MexA per OprM |
| B4 | 3 | – |
